Residue numbers refer to the chain shown, from its start. Numbers in names are those of the source.
T1: EsCas13d, nuclease-dead (Eubacterium siraeum, UniProt B0MS50, R295A;H300A;R849A;H854A)
T1 sequence: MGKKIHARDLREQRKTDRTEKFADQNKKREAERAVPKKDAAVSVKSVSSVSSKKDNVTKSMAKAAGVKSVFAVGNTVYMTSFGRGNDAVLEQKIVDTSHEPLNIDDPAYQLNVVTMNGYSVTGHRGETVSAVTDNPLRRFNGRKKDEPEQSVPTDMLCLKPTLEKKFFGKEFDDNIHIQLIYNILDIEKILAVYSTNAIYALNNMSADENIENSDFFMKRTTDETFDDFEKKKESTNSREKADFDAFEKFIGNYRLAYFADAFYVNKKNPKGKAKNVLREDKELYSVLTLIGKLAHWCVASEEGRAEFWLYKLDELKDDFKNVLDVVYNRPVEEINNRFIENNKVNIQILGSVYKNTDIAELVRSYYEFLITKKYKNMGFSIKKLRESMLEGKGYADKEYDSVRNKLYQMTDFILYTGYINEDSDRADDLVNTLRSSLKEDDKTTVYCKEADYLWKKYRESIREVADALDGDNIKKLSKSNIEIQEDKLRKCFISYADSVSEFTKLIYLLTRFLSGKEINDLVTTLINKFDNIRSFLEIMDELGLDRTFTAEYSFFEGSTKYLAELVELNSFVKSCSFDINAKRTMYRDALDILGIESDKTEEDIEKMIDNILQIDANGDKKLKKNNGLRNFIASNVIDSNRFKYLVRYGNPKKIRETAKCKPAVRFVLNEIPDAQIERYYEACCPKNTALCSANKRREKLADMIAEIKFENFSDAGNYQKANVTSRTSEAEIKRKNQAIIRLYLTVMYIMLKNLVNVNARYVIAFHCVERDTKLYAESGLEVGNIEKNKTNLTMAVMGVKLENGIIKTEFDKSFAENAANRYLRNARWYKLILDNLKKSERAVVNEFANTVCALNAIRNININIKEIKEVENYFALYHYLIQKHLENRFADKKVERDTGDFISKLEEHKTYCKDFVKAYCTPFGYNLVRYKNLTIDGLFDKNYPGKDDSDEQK

B1: target 1 insC 3' of 11,insU 3' of 7 (mixed)
RNA 1: CACCCGUGCAAAAAUGCAGGGGUCUAAAACUGAGCGGAUAACCUCUCUAUGG
RNA 2: GGGAAUGGAUCCACAUCUACGAAUUCGUACCAUAGAGAGGUCUAUCUCGCUCACCGAGAUCGGAAGAGCACACGU
B2: target 1 G13C,A14C (mixed)
RNA 1: B1 RNA 1
RNA 2: GGGAAUGGAUCCACAUCUACGAAUUCGUACCAUAGAGCCGUUAUCCGCUCACCGAGAUCGGAAGAGCACACGU
B3: target 1 A9U,G13U (mixed)
RNA 1: B1 RNA 1
RNA 2: B2 RNA 2 with C38A, C39U, A43U
B4: target 1 insG 3' of 22,insG 3' of 21 (mixed)
RNA 1: B1 RNA 1
RNA 2: GGGAAUGGAUCCACAUCUACGAAUUCGUACGCGAUAGAGAGGUUAUCCGCUCACCGAGAUCGGAAGAGCACACGU
B5: target 2 MT 5'PFS CUG 3'PFS CAG (mixed)
RNA 1: CACCCGUGCAAAAUUGCAGGGGUCUAAAACCUUCUCCAAAUUGUUUCAUCCU
RNA 2: GGGAAUGGAUCCACAUCUACGAAUUCCUGAGGAUGAAACAAUUUGGAGAAGCAGAGAUCGGAAGAGCACACGU
B6: target 2 MT 5'PFS GCA 3'PFS AAG (mixed)
RNA 1: B5 RNA 1
RNA 2: B5 RNA 2 with C27G, U28C, G29A, C52A
B7: target 2 MT 5'PFS GCG 3'PFS AGA (mixed)
RNA 1: B5 RNA 1
RNA 2: B5 RNA 2 with C27G, U28C, C52A, A53G, G54A
B8: target 2 MT 5'PFS AAC 3'PFS AGA (mixed)
RNA 1: B5 RNA 1
RNA 2: B5 RNA 2 with C27A, U28A, G29C, C52A, A53G, G54A
B9: target 2 MT 5'PFS GCA 3'PFS AAC (mixed)
RNA 1: B5 RNA 1
RNA 2: B5 RNA 2 with C27G, U28C, G29A, C52A, G54C
B10: target 2 MT 5'PFS AGA 3'PFS CGC (mixed)
RNA 1: B5 RNA 1
RNA 2: B5 RNA 2 with C27A, U28G, G29A, A53G, G54C
B11: target 2 MT 5'PFS CUC 3'PFS CUA (mixed)
RNA 1: B5 RNA 1
RNA 2: B5 RNA 2 with G29C, A53U, G54A
B12: target 2 MT 5'PFS UCG 3'PFS ACG (mixed)
RNA 1: B5 RNA 1
RNA 2: B5 RNA 2 with C27U, U28C, C52A, A53C
B13: target 2 MT 5'PFS ACG 3'PFS CAC (mixed)
RNA 1: B5 RNA 1
RNA 2: B5 RNA 2 with C27A, U28C, G54C
B14: target 2 MT 5'PFS CGC 3'PFS ACU (mixed)
RNA 1: B5 RNA 1
RNA 2: B5 RNA 2 with U28G, G29C, C52A, A53C, G54U
B15: target 2 MT 5'PFS GCA 3'PFS AAU (mixed)
RNA 1: B5 RNA 1
RNA 2: B5 RNA 2 with C27G, U28C, G29A, C52A, G54U
B16: target 2 MT 5'PFS GCC 3'PFS CCA (mixed)
RNA 1: B5 RNA 1
RNA 2: B5 RNA 2 with C27G, U28C, G29C, A53C, G54A
B17: target 2 MT 5'PFS CUG 3'PFS ACU (mixed)
RNA 1: B5 RNA 1
RNA 2: B5 RNA 2 with C52A, A53C, G54U
B18: target 2 MT 5'PFS CUC 3'PFS CUU (mixed)
RNA 1: B5 RNA 1
RNA 2: B5 RNA 2 with G29C, A53U, G54U
B19: target 2 MT 5'PFS GCG 3'PFS AGC (mixed)
RNA 1: B5 RNA 1
RNA 2: B5 RNA 2 with C27G, U28C, C52A, A53G, G54C
B20: target 2 MT 5'PFS GCG 3'PFS AGU (mixed)
RNA 1: B5 RNA 1
RNA 2: B5 RNA 2 with C27G, U28C, C52A, A53G, G54U
B21: target 2 MT 5'PFS CGC 3'PFS ACA (mixed)
RNA 1: B5 RNA 1
RNA 2: B5 RNA 2 with U28G, G29C, C52A, A53C, G54A
B22: target 2 MT 5'PFS CUG 3'PFS ACC (mixed)
RNA 1: B5 RNA 1
RNA 2: B5 RNA 2 with C52A, A53C, G54C
B23: target 2 MT 5'PFS CUG 3'PFS CAU (mixed)
RNA 1: B5 RNA 1
RNA 2: B5 RNA 2 with G54U
B24: target 2 MT 5'PFS GCA 3'PFS AAA (mixed)
RNA 1: B5 RNA 1
RNA 2: B5 RNA 2 with C27G, U28C, G29A, C52A, G54A
B25: target 2 MT 5'PFS UAA 3'PFS UUU (mixed)
RNA 1: B5 RNA 1
RNA 2: B5 RNA 2 with C27U, U28A, G29A, C52U, A53U, G54U
B26: target 2 MT 5'PFS GUG 3'PFS UGU (mixed)
RNA 1: B5 RNA 1
RNA 2: B5 RNA 2 with C27G, C52U, A53G, G54U
B27: target 2 MT 5'PFS CUG 3'PFS ACG (mixed)
RNA 1: B5 RNA 1
RNA 2: B5 RNA 2 with C52A, A53C
B28: target 2 MT 5'PFS CGC 3'PFS ACC (mixed)
RNA 1: B5 RNA 1
RNA 2: B5 RNA 2 with U28G, G29C, C52A, A53C, G54C
B29: target 2 MT 5'PFS ACG 3'PFS CAG (mixed)
RNA 1: B5 RNA 1
RNA 2: B5 RNA 2 with C27A, U28C
B30: target 2 MT 5'PFS UCG 3'PFS ACU (mixed)
RNA 1: B5 RNA 1
RNA 2: B5 RNA 2 with C27U, U28C, C52A, A53C, G54U
B31: target 2 MT 5'PFS CGC 3'PFS ACG (mixed)
RNA 1: B5 RNA 1
RNA 2: B5 RNA 2 with U28G, G29C, C52A, A53C
B32: target 2 MT 5'PFS CAG 3'PFS AAC (mixed)
RNA 1: B5 RNA 1
RNA 2: B5 RNA 2 with U28A, C52A, G54C
B33: target 2 MT 5'PFS ACG 3'PFS CAU (mixed)
RNA 1: B5 RNA 1
RNA 2: B5 RNA 2 with C27A, U28C, G54U
B34: target 2 MT 5'PFS GCC 3'PFS CCG (mixed)
RNA 1: B5 RNA 1
RNA 2: B5 RNA 2 with C27G, U28C, G29C, A53C
B35: target 2 MT 5'PFS GCG 3'PFS AGG (mixed)
RNA 1: B5 RNA 1
RNA 2: B5 RNA 2 with C27G, U28C, C52A, A53G
B36: target 2 MT 5'PFS CUC 3'PFS CUG (mixed)
RNA 1: B5 RNA 1
RNA 2: B5 RNA 2 with G29C, A53U
B37: target 2 MT 5'PFS CUC 3'PFS CUC (mixed)
RNA 1: B5 RNA 1
RNA 2: B5 RNA 2 with G29C, A53U, G54C
B38: target 2 MT 5'PFS CUG 3'PFS ACA (mixed)
RNA 1: B5 RNA 1
RNA 2: B5 RNA 2 with C52A, A53C, G54A

Biological target: T1, EsCas13d, nuclease-dead
Experiment: crRNA (strand 1, pre-loaded); Mg2+; 40 mM Tris-HCl pH 7.5, 150 mM NaCl, 6 mM MgCl2, 1 mM DTT, 0.1% Tween-20, 0.2 mg/ml BSA; 25 C; 10 min per concentration, then washed
Details: tags: His6-TwinStrep-SUMO cleaved; N-terminal SNAP kept (SNAP-Surface 488); label: 3' end held by stalled T7 RNA polymerase

Binder | Kd [nM]
B1 | 39 ± 5
B2 | 50 ± 9
B3 | 53 ± 8
B4 | 68 ± 24
B5 | 2.33 ± 0.21
B6 | 7.8 ± 1.2
B7 | 7.6 ± 1
B8 | 3.3 ± 0.8
B9 | 11.9 ± 3.3
B10 | 6.5 ± 1.2
B11 | 2.02 ± 0.29
B12 | 45 ± 9
B13 | 5.7 ± 1.2
B14 | 6 ± 0.8
B15 | 10 ± 1.9
B16 | 20 ± 4
B17 | 4.5 ± 0.8
B18 | 2.47 ± 0.18
B19 | 9.7 ± 1.6

Binder | Kd [nM]
B20 | 11.6 ± 2.1
B21 | 11 ± 5
B22 | 5.6 ± 1.2
B23 | 2.29 ± 0.24
B24 | 6.5 ± 2
B25 | 13.4 ± 1.9
B26 | 27 ± 2.4
B27 | 2.89 ± 0.25
B28 | 18 ± 4
B29 | 7.7 ± 1.4
B30 | 20 ± 4
B31 | 5.2 ± 0.7
B32 | 6.1 ± 1.4
B33 | 5.5 ± 0.6
B34 | 18 ± 2
B35 | 16.2 ± 2.8
B36 | 4.4 ± 1.5
B37 | 3.1 ± 0.6
B38 | 3.9 ± 0.5
